Measurements: article PMC5012862, “Structural characterization of encapsulated ferritin provides insight into iron storage in bacterial nanocompartments” (eLife, 2016)
Where a chain is given by its changes, count along the chain named. Names and notes keep the numbering of the source.

Assays:
[1] = biological target: EncFtnsH H65A mutant (Rhodospirillum rubrum) (UniProt Q2RVS1); assay: native MS; nESI, 100 mM ammonium acetate pH 8.0, about 5 uM protein; apo protein made in minimal medium, no Fe2+ added
[2] = biological target: EncFtnsH H65A mutant (Rhodospirillum rubrum) (UniProt Q2RVS1); assay: crystal structure; hanging drop, 292 K, 0.14 M calcium acetate, 15% PEG 3350; cryoprotectant with 1 mM FeSO4; three decamers in the asymmetric unit; mutants crystallized in the same manner
[3] = biological target: the molecule itself; assay: SEC; preparative Superdex 200 16/60 after nickel affinity; 50 mM Tris-HCl pH 8.0, 150 mM NaCl; protein from E. coli grown in SeMet medium + 1 mM Fe(NH4)2(SO4)2, in MM, or in MM + 1 mM Fe(NH4)2(SO4)2
[4] = biological target: the molecule itself; assay: SEC; analytical gel filtration of EncFtnsH monomer at 700 uM, compared with 90 uM; no metal added
Q2RVS1 = assay: SEC; analytical gel filtration, Superdex 200 PC 3.2/30 (Table 3 caption: 10/300 GL), 15 C, GF buffer; 90 uM EncFtnsH monomer or decamer fractions, alone or after 2 h at room temperature with one molar equivalent of metal salt
[5] = biological target: the molecule itself; assay: SEC; preparative Superdex 200 16/60 after nickel affinity; 50 mM Tris-HCl pH 8.0, 150 mM NaCl; protein from E. coli grown in SeMet medium + 1 mM Fe(NH4)2(SO4)2, in MM, or in MM + 1 mM Fe(NH4)2(SO4)2; remark: listed apart in the source
[6] = biological target: the molecule itself; assay: SEC; size-exclusion chromatography of the purified full-length EncFtn; column and buffer not told for this protein

With “EncFtnsH H65A mutant (from UniProt Q2RVS1 1-96) (domain or fragment)” the stoichiometry N [1] was 2 and the stoichiometry N [2] was 10.

B1: EncFtnsH: truncated C-terminal hexahistidine-tagged variant of Rhodospirillum rubrum encapsulated ferritin (EncFtn, Rru_A0973), amino acids 1-96 plus the tag (domain or fragment, UniProt Q2RVS1 1-96, looked up)
chain: MAQSSNSTHEPLEVLKEETVNRHRAIVSVMEELEAVDWYDQRVDASTDPELTAILAHNRDEEKEHAAMTLEWLRRNDAKWAEHLRTYLFTEGPITA
notes: amino acids 1-96 of the 140-residue protein; Monomer predicted mass 13,194.53 Da with the tag; also called wild-type EncFtnsH; WT; source: for crystals anion exchange and SEC; not shown: His6, C-terminal, kept
For B1, the “decamer/monomer peak area ratio (cells grown in MM + 1 mM Fe(NH4)2(SO4)2)” value [3] was 4.5, the “stoichiometry N” value [4] was 2 and the decamer/monomer peak area ratio (decamer fractions, no metal added, day 1) (Q2RVS1) was 11.2. The decamer/monomer peak area ratio (monomer fractions, no metal added, day 1) (Q2RVS1) was 0.1, the decamer/monomer peak area ratio (monomer fractions, no metal added, day 2) (Q2RVS1) was 0.4 and the decamer/monomer peak area ratio (monomer fractions, no metal added, day 3) (Q2RVS1) was 0.3. For the same molecule, the decamer/monomer peak area ratio (with Ca acetate) (Q2RVS1) was 0.2, the decamer/monomer peak area ratio (with CoCl2) (Q2RVS1) was 1.2 and the decamer/monomer peak area ratio (with Fe(NH4)2(SO4)2) (Q2RVS1) was 0.8. It also gave a decamer/monomer peak area ratio (with FeCl3) (Q2RVS1) of 0.1, a decamer/monomer peak area ratio (with FeSO4-HCl) (Q2RVS1) of 1 and a decamer/monomer peak area ratio (with MgSO4) (Q2RVS1) of 0.2. For the same molecule, the decamer/monomer peak area ratio (with MnCl2) (Q2RVS1) was 0.1, the decamer/monomer peak area ratio (with ZnSO4) (Q2RVS1) was 2.3 and the “stoichiometry N” value [5] was 10.

B2: EncFtnsH E62A mutant (domain or fragment, Rhodospirillum rubrum, UniProt Q2RVS1 1-96, looked up)
chain: B1 chain with E62A
notes: amino acids 1-96, with E62A; Single mutant of EncFtnsH; source: E. coli BL21(DE3) grown in MM or MM supplemented with iron; purified (Superdex 200 SEC); not shown: His6, C-terminal, kept
B2 was tested, and the “stoichiometry N” value [5] was 10.

B3: EncFtnsH E32A mutant (domain or fragment, Rhodospirillum rubrum, UniProt Q2RVS1 1-96, looked up)
chain: B1 chain with E32A
notes: amino acids 1-96, with E32A; Single mutant of EncFtnsH; source: E. coli BL21(DE3) grown in MM or MM supplemented with iron; purified (Superdex 200 SEC); not shown: His6, C-terminal, kept
For B3, the “stoichiometry N” value [5] was 10.

B4: Rhodospirillum rubrum EncFtn, full-length sequence (140 amino acids), purified alone (natural protein, UniProt Q2RVS1 1-140, looked up)
chain: MAQSSNSTHEPLEVLKEETVNRHRAIVSVMEELEAVDWYDQRVDASTDPELTAILAHNRDEEKEHAAMTLEWLRRNDAKWAEHLRTYLFTEGPITAIEAADTAGEGSGGDAAKGATAQGDGSLGIGSLKGEAALARPPRL
notes: primers are in Supplementary file 2; also called encapsulated ferritin; source: E. coli, recombinant, purified (SEC)
B4: binds [6].
